Source: US11371056B2, “HPPD variants and methods of use” (BASF Agricultural Solutions Seed US LLC, priority 2017, dated 2022)
Substitutions are numbered along the chain they refer to.

Tests used:
soybean shoots = assay: Soybean transformation, selection of shoots with tembotrione (greening or bleaching); type: in vivo; details: wild-type soybean shoots treated with tembotrione
Excerpt: Soybean transformation was achieved by using methods well known in the art, such as the one described using the Agrobacterium tumefaciens mediated transformation soybean half-seed explants using essentially the method described by Paz et al. (2006), Plant cell Rep. 25:206. Transformants were identified by using the HPPD inhibitor herbicide “tembotrione” as selection marker. The appearance of green shoots was observed, and documented as an indicator of tolerance to the HPPD inhibitor herbicide tembotrione.

[1] = test system: Pseudomonas fluorescens HPPD polypeptide (wild-type and mutants); assay: Coupled HPPD activity assay: turnover and residual turnover in crude HPPD polypeptide extracts with and without Cmpd. 1; type: biochemical; details: for Turnover: absence of Cmpd. 1; for Turnover / Residual turnover: changes in absorbance (OD) at 320 nm in the coupled assay, 30 min; for Residual turnover: presence of 100 μM Cmpd. 1
[2] = test system: soybean plants (transgenic T0 events, wild-type); assay: Greenhouse spray test of T0 soybean events with Cmpd. 1, leaf area damage score; type: in vivo; design: key to leaf area damage score, 25th percentile / leaf area damage score, Interquartile range: damage score 0 (no damage) to 100 (complete bleaching); details: for leaf area damage score, 25th percentile / leaf area damage score, 75th percentile / leaf area damage score, 90th percentile / leaf area damage score, Median: T0 soybean events expressing the polypeptide; for leaf area damage score, 25th percentile / leaf area damage score, 75th percentile / leaf area damage score, 90th percentile / leaf area damage score, Median / leaf area damage score, Interquartile range: five days after application of Cmpd. 1 at 300 g AI/ha; for leaf area damage score, 75th percentile / leaf area damage score, 90th percentile / leaf area damage score, Median: scale 0 to 100; for leaf area damage score, Median: 50th percentile; for leaf area damage score, Interquartile range: difference between 75th and 25th percentile, T0 soybean events
Excerpt: Tolerant green shoots were transferred to rooting media or grafted. Rooted plantlets were transferred to the greenhouse after an acclimation period. Plants containing the transgene were then sprayed with HPPD inhibitor herbicides, as for example with mesotrione at a rate of 300-600 g AI/ha, or with Cmpd. 1 (2-chloro-3-(methylsulfanyl)-N-(1-methyl-1H-tetrazol-5-yl)-4-(trifluoromethyl)benzamide) at a rate of 150 g-300 g AI/ha supplemented with ammonium sulfate and methyl ester rapeseed oil. Five to ten days after the application, the symptoms due to the application of the herbicide were evaluated and compared to the symptoms observed on wild-type plants under the same conditions.
For example, T0 soybean plants having a “plant expression cassette”, which includes an HPPD inhibitor tolerant HPPD polypeptide of the present invention, were tested towards the tolerance of Cmpd. 1.
Prior greenhouse trials with the transgenic plants, soybean transformants were routinely analyzed for the expression and presence of the transgenes using the ELISA protein detection method (see detailed description under item D and H). Only plants recovering in the selection media and having a detectable HPPD transgene protein expression were used for the herbicide tolerance analysis. A DeVries Tracker Sprayer was calibrated prior to each spraying. The chemical formulation used for Cmpd. 1 was supplemented with ammonium sulfate and methylated rape seed oil. Spray tests were conducted with a concentration, which equals to 300 grams AI per hectare (300 g AI/ha).
In greenhouse trials, independent T0 soybean events containing an exemplary mutant HPPD polypeptide were sprayed with the HPPD inhibitor herbicide Cmpd. 1 (2-chloro-3-(methylsulfanyl)-N-(1-methyl-1H-tetrazol-5-yl)-4-(trifluoromethyl)benzamide) at the rate of 300 grams AI/ha, supplemented with ammonium sulfate and methyl ester rapeseed oil. Five days after the application, the leaf damaged area due to the HPPD inhibitor herbicide is scored in a scale from 0 (no damage) to 100 (complete bleaching). Under those conditions, the wild-type plants were completely bleached and their damage scores were in the 95-100 range.
Table 5 presents the distribution of the HPPD inhibitor herbicide damage score data as percentile for exemplary mutant HPPD inhibitor herbicide tolerant polypeptides (SEQ ID NOs). The percentiles normalize ranks of the damage score from an individual plant in a population. […] The median is the 50th percentile. Half the values had higher damage scores; half had lower damage scores. The value of the 75th and 90th percentile is the damage score where 75% and 90% of the soybean events had lower damage scores, respectively. The difference between the 75th and 25th percentile is called the interquartile range and a marker to quantify scattering in the population. All constructs had only one single cassette insertion in the soybean genome.

[3] = scale 0 (no damage) to 100 (complete bleaching)

In the case of `CS(=O)(=O)c1ccc(C(=O)C2C(=O)CCCC2=O)c(Cl)c1COCC(F)(F)F` [tembotrione, 2-[2-chloro-4-(methylsulfonyl)-3-[(2,2,2,-trifluoroethoxy)methyl]benzoyl]-1,3-cyclohexanedione], the bleaching of shoots (soybean shoots) is reported as “entirely bleached”.

For `CSc1c(C(F)(F)F)ccc(C(=O)Nc2nnnn2C)c1Cl` [Cmpd. 1, 2-chloro-3-(methylsulfanyl)-N-(1-methyl-1H-tetrazol-5-yl)-4-(trifluoromethyl)benzamide, reference compound], the Turnover [1] was 0.236, the Residual turnover [1] was 0.042 and the damage scores ([2]; wild-type soybean plants, Cmpd. 1 300 g AI/ha, five days after application, scale 0 (no damage) to 100 (complete bleaching)) was 95-100.

B1: SEQ ID NO:62: mutant HPPD polypeptide: 213K 215A 264L 268G 270E 315Q 335P 336D 337S 340V 344Q 345M (protein)
chain: MADLYENPMGLMGFEFIEFASPTPGTLEPIFEIMGFTKVATHRSKNVHLYRQGEINLILNNEPNSIASYFAAEHGPSVCGMAFRVKDSQKAYNRALELGAQPIHIDTGPMELNLPAIKGIGGAPLYLIDRFGEGSSIYDIDFVYLEGVERNPVGAGLKVIDHLTHNVYRGRMVYWANFYEKLFNFREARYFDIKGEYTGLTSKAMSAPDGMIKIALNEESSKGAGQIEEFLMQFNGEGIQHVAFLTDDLVKTWDALKKIGMRFLTAPGDEYYEMLEGRLPDHGEPVDQLQARGILLDGSSVEGDKRLLLQIFSEQLMGPVFFEFIQRKGDDGFGPDSFKVLFEQMERDQVRRGVLTAD
modifications: mutant HPPD polypeptide
notes: mutant HPPD polypeptide: 213K 215A 264L 268G 270E 315Q 335P 336D 337S 340V 344Q 345M
B1 was tested, and the “turnover and residual turnover, comparison in words” value ([1]; 100 μM Cmpd. 1, Table 3) was “increase significantly the turnover and the residual turnover”, the “Residual turnover [%]” value ([1]; 100 μM Cmpd. 1, normalised to turnover without inhibitor) was 79% and the Turnover [1] was 0.209. The Residual turnover [1] was 0.166, the “leaf area damage score, 25th percentile” value [2, 3] was 10.0 and the “leaf area damage score, 75th percentile” value [2] was 25.0. The “leaf area damage score, 90th percentile” value [2] was 35.0, the “leaf area damage score, Median” value [2] was 15.0 and the “leaf area damage score, Interquartile range” value [2] was 15.0.

B2: SEQ ID NO: 45 (protein)
chain: B1 chain with A215P, L264M, Q315T, D336H, Q344S
modifications: mutant HPPD polypeptide
With B2 the “leaf area damage score, 25th percentile” value [2, 3] was 10.0, the “leaf area damage score, 75th percentile” value [2] was 25.0 and the “leaf area damage score, 90th percentile” value [2] was 35.0. The “leaf area damage score, Median” value [2] was 15.0 and the “leaf area damage score, Interquartile range” value [2] was 15.0.

B3: SEQ ID NO: 23 (protein)
chain: B1 chain with K213R, A215P, L264M, D336H, Q344S, M345I
modifications: mutant HPPD polypeptide
B3 was tested, and the “leaf area damage score, 25th percentile” value [2, 3] was 10, the “leaf area damage score, 75th percentile” value [2] was 22.5 and the “leaf area damage score, 90th percentile” value [2] was 55.0. For the same molecule, the “leaf area damage score, Median” value [2] was 10 and the “leaf area damage score, Interquartile range” value [2] was 12.5.

B4: SEQ ID NO: 43 (protein)
chain: B1 chain with A215P, L264M, Q315K, D336H, Q344S
modifications: mutant HPPD polypeptide
For B4, the “leaf area damage score, 25th percentile” value [2, 3] was 10.0, the “leaf area damage score, 75th percentile” value [2] was 25.0 and the “leaf area damage score, 90th percentile” value [2] was 35.0. For the same molecule, the “leaf area damage score, Median” value [2] was 10.0 and the “leaf area damage score, Interquartile range” value [2] was 15.0.

B5: SEQ ID NO: 64 (protein)
chain: B1 chain with A215P, D336H, Q344S
modifications: mutant HPPD polypeptide
With B5 the “leaf area damage score, 25th percentile” value [2, 3] was 5.0, the “leaf area damage score, 75th percentile” value [2] was 25.0 and the “leaf area damage score, 90th percentile” value [2] was 38.0. For the same molecule, the “leaf area damage score, Median” value [2] was 10.0 and the “leaf area damage score, Interquartile range” value [2] was 20.0.

B6: SEQ ID NO: 2 (protein)
chain: MADLYENPMGLMGFEFIEFASPTPGTLEPIFEIMGFTKVATHRSKNVHLYRQGEINLILNNEPNSIASYFAAEHGPSVCGMAFRVKDSQKAYNRALELGAQPIHIDTGPMELNLPAIKGIGGAPLYLIDRFGEGSSIYDIDFVYLEGVERNPVGAGLKVIDHLTHNVYRGRMVYWANFYEKLFNFREARYFDIKGEYTGLTSKAMSAPDGMIRIPLNEESSKGAGQIEEFLMQFNGEGIQHVAFLTDDLVKTWDALKKIGMRFMTAPPDTYYEMLEGRLPDHGEPVDQLQARGILLDGSSVEGDKRLLLQIFSETLMGPVFFEFIQRKGDDGFGPWNFAQLFESIERDQVRRGVLTAD
modifications: mutant HPPD polypeptide
In the case of B6, the “leaf area damage score, 25th percentile” value [2, 3] is reported as 15.0, the “leaf area damage score, 75th percentile” value [2] is reported as 45.0 and the “leaf area damage score, 90th percentile” value [2] is reported as 87.0. For the same molecule, the “leaf area damage score, Median” value [2] was 20.0 and the “leaf area damage score, Interquartile range” value [2] was 30.0.
